Results on two molecules are retold here after patent publication CN116981688A (HELMHOLTZ ZENTRUM MUENCHEN DEUTSCHES FORSCHUNGSZENTRUM FUR …, dated 2023).

The target in test [1] is T1, 人PRDX4 (存在于癌细胞的细胞表面上) (human) (UniProt Q13162).
T1 sequence: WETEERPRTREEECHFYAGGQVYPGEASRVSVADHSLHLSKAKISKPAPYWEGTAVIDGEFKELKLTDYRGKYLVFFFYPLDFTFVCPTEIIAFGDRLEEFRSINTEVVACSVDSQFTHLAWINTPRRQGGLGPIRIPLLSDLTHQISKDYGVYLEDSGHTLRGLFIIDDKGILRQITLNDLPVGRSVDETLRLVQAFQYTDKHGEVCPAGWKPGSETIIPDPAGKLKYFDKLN
Put plainly: flow cytometry on ES-2 cells, isotype control.

Test [2] has as its target T1, 人PRDX4 (存在于癌细胞的细胞表面上) (human). Put plainly: flow cytometry on ES-2w cells transfected with control siRNA.
The target of the next test is T2, PRDX4 (内源性, 细胞裂解物中) (human, UniProt Q13162 38-271).
T2 construct: Endogenous PRDX4 in RIPA lysates of human cell lines (ES-2 and others), precipitated with 11F2 beads; also called 内源性PRDX4
T2 sequence: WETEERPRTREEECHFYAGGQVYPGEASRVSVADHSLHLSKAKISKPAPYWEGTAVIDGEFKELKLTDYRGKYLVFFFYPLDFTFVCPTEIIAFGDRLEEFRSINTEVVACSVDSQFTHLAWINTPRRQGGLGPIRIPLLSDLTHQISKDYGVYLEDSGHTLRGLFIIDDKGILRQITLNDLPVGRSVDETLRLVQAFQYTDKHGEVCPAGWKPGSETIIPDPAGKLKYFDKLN
The test is described as follows: immunoprecipitation with 11F2 beads from ES-2 lysate, western blot.

Test [3] deals with T1, 人PRDX4 (存在于癌细胞的细胞表面上) (human). Put plainly: flow cytometry on ES-2 cells transfected with PRDX4-specific siRNA (population 4BC_KO).
Test [4] shares this target. The test is described as follows: flow cytometry on ES-2 cells with PRDX4-specific siRNA (4BC_KO) against control siRNA cells.

Molecule 同种型抗体 (antibody) registered a 平均值 (mean fluorescence) in test [1] of 159.

B1: 抗体11F2 (antibody, V domains shown)
VH: QVQLQQSGAELVKPGTSVKLSCKASGYTFSTHHMHWIKETTGQGLEWIGIINPGNGGTKYNVKFKGKATLTVDSSSSTAFMQLGSLTPEDSAVYYCARGNPASFDYWGQGVMVTVSS
VL: DIQMTQSPSFLSASVGDRVTINCKASQNIYKYLNWYQQKLGEAPKRLIYNTNNLETDIPSRFSGSGSGTDYTFTISSLQPEDFATYFCLQHSNFPFTFGSGTKLEIKR
notes: Monoclonal antibody detected with goat anti-rat IgG secondary antibody, so rat constant regions; also called PRDX4特异性抗体11F2; PRDX4抗体11F2
For B1, the figures for the 平均值 (mean fluorescence) in test [2] and in test [3] were 1910 and 874, respectively. Further, in the test with PRDX4 (内源性, 细胞裂解物中), the binding result was “binds”. In addition, the percent of 11F2 binding against control siRNA cells in test [4] came out at 50%.
